In paper PMC1920236 (Nucleic Acids Research, 2007):
Read-outs that look alike come from different tables or passages of the source.

What was measured:
native gel or EMSA = biological target: the molecule itself; experiment: native gel or EMSA
IRF-3 WT = biological target: T1, IRF-3 WT (UniProt Q14653 1-427); experiment: fluorescence anisotropy
T1 sequence: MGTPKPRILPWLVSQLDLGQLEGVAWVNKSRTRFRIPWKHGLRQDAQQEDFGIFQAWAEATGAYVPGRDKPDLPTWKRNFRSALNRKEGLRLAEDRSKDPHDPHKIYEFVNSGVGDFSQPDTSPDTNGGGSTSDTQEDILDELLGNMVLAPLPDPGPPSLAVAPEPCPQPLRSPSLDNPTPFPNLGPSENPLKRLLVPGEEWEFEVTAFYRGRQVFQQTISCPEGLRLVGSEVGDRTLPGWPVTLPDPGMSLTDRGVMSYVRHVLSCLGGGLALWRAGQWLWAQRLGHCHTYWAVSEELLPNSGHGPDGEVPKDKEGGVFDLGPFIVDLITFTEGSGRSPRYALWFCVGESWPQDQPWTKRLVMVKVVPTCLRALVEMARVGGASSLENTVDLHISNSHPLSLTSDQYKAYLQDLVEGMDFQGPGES

IRF-3 2D = biological target: T2, IRF-3 2D (UniProt Q14653 1-427, S396D;S398D); experiment: fluorescence anisotropy
T2 sequence: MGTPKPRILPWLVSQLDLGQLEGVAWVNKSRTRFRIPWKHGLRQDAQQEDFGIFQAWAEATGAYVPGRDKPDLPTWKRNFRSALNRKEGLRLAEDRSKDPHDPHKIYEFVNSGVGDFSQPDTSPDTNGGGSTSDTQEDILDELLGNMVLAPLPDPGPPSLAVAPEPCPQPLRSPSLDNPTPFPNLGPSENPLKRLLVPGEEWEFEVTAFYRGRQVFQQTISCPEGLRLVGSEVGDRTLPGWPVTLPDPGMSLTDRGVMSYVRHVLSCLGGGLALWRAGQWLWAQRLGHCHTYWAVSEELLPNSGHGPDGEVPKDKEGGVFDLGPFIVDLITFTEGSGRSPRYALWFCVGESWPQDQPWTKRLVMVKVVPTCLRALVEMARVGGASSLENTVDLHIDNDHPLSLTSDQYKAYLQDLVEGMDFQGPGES

IRF-3 5D [1] = biological target: T3, IRF-3 5D (UniProt Q14653 1-427, S396D;S398D;S402D;T404D;S405D); experiment: fluorescence anisotropy
T3 sequence: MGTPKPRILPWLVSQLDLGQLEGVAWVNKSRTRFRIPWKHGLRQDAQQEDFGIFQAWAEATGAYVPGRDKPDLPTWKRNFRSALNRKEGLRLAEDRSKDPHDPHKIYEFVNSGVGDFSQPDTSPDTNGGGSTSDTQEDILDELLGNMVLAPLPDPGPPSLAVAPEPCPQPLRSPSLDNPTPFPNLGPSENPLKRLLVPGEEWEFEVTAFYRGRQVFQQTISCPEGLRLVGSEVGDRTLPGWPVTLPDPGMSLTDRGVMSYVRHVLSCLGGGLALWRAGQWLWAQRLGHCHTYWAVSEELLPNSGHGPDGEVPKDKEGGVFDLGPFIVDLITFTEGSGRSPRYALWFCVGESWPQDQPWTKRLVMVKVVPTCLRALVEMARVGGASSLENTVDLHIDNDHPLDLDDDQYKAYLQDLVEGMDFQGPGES

IRF-3 5D [2] = biological target: T3, IRF-3 5D; experiment: fluorescence anisotropy; remark: listed apart in the source

B1: IRF-3 5D phosphomimetic mutant (S396D, S398D, S402D, T404D and S405D) (natural protein)
chain: MGTPKPRILPWLVSQLDLGQLEGVAWVNKSRTRFRIPWKHGLRQDAQQEDFGIFQAWAEATGAYVPGRDKPDLPTWKRNFRSALNRKEGLRLAEDRSKDPHDPHKIYEFVNSGVGDFSQPDTSPDTNGGGSTSDTQEDILDELLGNMVLAPLPDPGPPSLAVAPEPCPQPLRSPSLDNPTPFPNLGPSENPLKRLLVPGEEWEFEVTAFYRGRQVFQQTISCPEGLRLVGSEVGDRTLPGWPVTLPDPGMSLTDRGVMSYVRHVLSCLGGGLALWRAGQWLWAQRLGHCHTYWAVSEELLPNSGHGPDGEVPKDKEGGVFDLGPFIVDLITFTEGSGRSPRYALWFCVGESWPQDQPWTKRLVMVKVVPTCLRALVEMARVGGASSLENTVDLHIDNDHPLDLDDDQYKAYLQDLVEGMDFQGPGES
- stoichiometry N (native gel or EMSA): 2

B2: PRDIII-PRDI 26-bp (dsDNA)
DNA 1: GCGAACTGAAAGGGAGAAGTGAAAGT
DNA 2: ACTTTCACTTCTCCCTTTCAGTTCGC
- Kd (IRF-3 WT): 1230 ± 15 nM
- Kd (IRF-3 2D): 1300 ± 15 nM
- Kd (IRF-3 5D [1]): 5.8 ± 0.8 nM

B3: PRDI 13-bp (dsDNA)
DNA 1: GAGAAGTGAAAGT
DNA 2: ACTTTCACTTCTC
- Kd (IRF-3 WT): 800 ± 17 nM
- Kd (IRF-3 2D): 900 ± 15 nM
- Kd (IRF-3 5D [2]): 1200 ± 20 nM
